Two molecules from PMC4288179, “Synergic interplay of the La motif, RRM1 and the interdomain linker of LARP6 in the recognition of collagen mRNA expands the RNA binding repertoire of the La module” can be followed below.

By Kd is commonly meant a measure of binding affinity in units of concentration.

The target in this series is T1, HsLARP6 La module (70-300) (Homo sapiens, UniProt Q9BRS8 70-300).
T1 sequence: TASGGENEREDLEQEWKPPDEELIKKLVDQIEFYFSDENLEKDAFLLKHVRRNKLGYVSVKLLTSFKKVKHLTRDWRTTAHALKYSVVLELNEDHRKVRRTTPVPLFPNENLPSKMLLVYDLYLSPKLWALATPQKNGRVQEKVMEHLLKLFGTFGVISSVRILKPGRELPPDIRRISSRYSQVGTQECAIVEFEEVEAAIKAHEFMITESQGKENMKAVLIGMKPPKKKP
The series is described as follows: ITC; ITC: 20 mM Tris pH 7.25, 100 mM KCl, 5 mM MgCl2, 1 mM DTT, 298 K; protein titrated into RNA. The note with it: protein: recombinant, tags: N-terminal His6, TEV-cleaved for initial ITC. A general note: Isothermal titration calorimetry measures the heat released or taken up as one component is titrated into another.

With UUUU (ssRNA) [UUUUOH RNA], where the note is “single strand”, the Kd came out at 6 µM.
With CAAAGAGUCUACAUGGGUCAUGUUCAGCUUUG (structured_RNA) [32 nt RNA], the Kd (stem-loop with internal bulge) was found to be 0.125 µM.
